Test results: patent US11135246B2, “Peptides and combination of peptides for use in immunotherapy against leukemias and other cancers” (Immatics Biotechnologies GmbH, priority 2017, dated 2021)

molecular target: HLA-A*03:01 (Homo sapiens, UniProt P04439); test: MHC binding assay, UV-ligand exchange with β2m ELISA, HLA-A*03:01; settings: peptide exchange yield
From the text: (§1) Candidate peptides for T cell based therapies according to the present invention were further tested for their MHC binding capacity (affinity). The individual peptide-MHC complexes were produced by UV-ligand exchange, where a UV-sensitive peptide is cleaved upon UV-irradiation, and exchanged with the peptide of interest as analyzed. Only peptide candidates that can effectively bind and stabilize the peptide-receptive MHC molecules prevent dissociation of the MHC complexes. To determine the yield of the exchange reaction, an ELISA was performed based on the detection of the light chain (β2m) of stabilized MHC complexes. The assay was performed as generally described in Rodenko et al. (Rodenko et al., 2006).
(§2) 96 well MAXISorp plates (NUNC) were coated over night with 2 ug/ml streptavidin in PBS at room temperature, washed 4× and blocked for 1 h at 37° C. in 2% BSA containing blocking buffer. Refolded HLA-A*02:01/MLA-001 monomers served as standards, covering the range of 15-500 ng/ml. Peptide-MHC monomers of the UV-exchange reaction were diluted 100-fold in blocking buffer. Samples were incubated for 1 h at 37° C., washed four times, incubated with 2 ug/ml HRP conjugated anti-β2m for 1 h at 37° C., washed again and detected with TMB solution that is stopped with […]. Absorption was measured at 450 nm. Candidate peptides that show a high exchange yield (preferably higher than 50%, most preferred higher than 75%) are generally preferred for a generation and production of antibodies or fragments thereof, and/or T cell receptors or fragments thereof, as they show sufficient avidity to the MHC molecules and prevent dissociation of the MHC complexes.

Row | Peptide exchange | Substance
1 | “++” (>20% = ++) | 28 (VILESIFLK; listed as Homo sapiens) [compound 28]
2 | “++” (>20% = ++) | 29 (RIYDEILQSK; listed as Homo sapiens) [compound 29]
3 | “++” (>20% = ++) | 30 (RTYGFVLTF; listed as Homo sapiens) [compound 30]
4 | “++” (>20% = ++) | 32 (KTSNIVKIK; listed as Homo sapiens) [compound 32]
5 | “++” (>20% = ++) | 33 (SVFEGDSIVLK; listed as Homo sapiens) [compound 33]
6 | “+++” (>50 = +++) | 34 (SVYSETSNMDK; listed as Homo sapiens) [compound 34]
7 | “+++” (>50 = +++) | 35 (ATKSPAKPK; listed as Homo sapiens) [compound 35]
8 | “++” (>20% = ++) | 36 (KAKAAAKPK; listed as Homo sapiens) [compound 36]
9 | “+++” (>50 = +++) | 37 (KAKKPAGAAK; listed as Homo sapiens) [compound 37]
10 | “+++” (>50 = +++) | 38 (KARKSAGAAK; listed as Homo sapiens) [compound 38]
11 | “+” (>10% = +) | 40 (RSKEYIRKK; listed as Homo sapiens) [compound 40]
12 | “++” (>20% = ++) | 41 (SVAHLLSKY; listed as Homo sapiens) [compound 41]
13 | “++” (>20% = ++) | 42 (SVSSSTHFTR; listed as Homo sapiens) [compound 42]
14 | “++” (>20% = ++) | 43 (KLMETSMGF; listed as Homo sapiens) [compound 43]
15 | “++” (>20% = ++) | 44 (KVYDPVSEY; listed as Homo sapiens) [compound 44]
16 | “+++” (>50 = +++) | 45 (VVFPFPVNK; listed as Homo sapiens) [compound 45]
17 | “++” (>20% = ++) | 46 (RVFPSPMRI; listed as Homo sapiens) [compound 46]

molecular target: HLA-B*07:02 (Homo sapiens, UniProt P01889); test: MHC binding assay, UV-ligand exchange with β2m ELISA, HLA-B*07:02; settings: binding to HLA-B*07:02, UV-ligand exchange
From the text: as §1, §2

Row | Substance | Peptide exchange (MHC class I binding score, peptide exchange yield)
18 | 90 (KPKAAKPKA; listed as Homo sapiens) [compound 90] | “++” (>20% = ++)
19 | 91 (KPKAAKPKAA; listed as Homo sapiens) [compound 91] | “++” (>20% = ++)
20 | 92 (KAKKPAGAA; listed as Homo sapiens) [compound 92] | “++” (>20% = ++)
21 | 93 (KARKSAGAA; listed as Homo sapiens) [compound 93] | “+++” (>50 = +++)
22 | 94 (KPKAAKPKKAAA; listed as Homo sapiens) [compound 94] | “++” (>20% = ++)
23 | 95 (KPKAAKPKTA; listed as Homo sapiens) [compound 95] | “++” (>20% = ++)
24 | 96 (KPKKAPKSPA; listed as Homo sapiens) [compound 96] | “+++” (>50 = +++)
25 | 97 (LPFGKIPIL; listed as Homo sapiens) [compound 97] | “++” (>20% = ++)
26 | 98 (YPIALTRAEM; listed as Homo sapiens) [compound 98] | “+++” (>50 = +++)
27 | 99 (SPRAINNLVL; listed as Homo sapiens) [compound 99] | “++++” (>75% = ++++)
28 | 100 (YPYQERVFL; listed as Homo sapiens) [compound 100] | “++” (>20% = ++)
29 | 101 (NPRYPNYMF; listed as Homo sapiens) [compound 101] | “+++” (>50 = +++)
30 | 102 (LPLSMEAKI; listed as Homo sapiens) [compound 102] | “++” (>20% = ++)
31 | 103 (IPANTEKASF; listed as Homo sapiens) [compound 103] | “++” (>20% = ++)
32 | 104 (RPMTPTQIGPSL; listed as Homo sapiens) [compound 104] | “+++” (>50 = +++)
33 | 105 (NPLTKLLAI; listed as Homo sapiens) [compound 105] | “+++” (>50 = +++)
34 | 106 (KAFKWFSAL; listed as Homo sapiens) [compound 106] | “++” (>20% = ++)
35 | 225 (LPARFYQAL; listed as Homo sapiens) [compound 225] | “++++” (>75% = ++++)
36 | 226 (YLNRHLHTW; listed as Homo sapiens) [compound 226] | “++” (>20% = ++)
37 | 227 (APINKAGSFL; listed as Homo sapiens) [compound 227] | “++++” (>75% = ++++)
38 | 228 (SPRITFPSL; listed as Homo sapiens) [compound 228] | “++++” (>75% = ++++)
39 | 229 (SPLGSLARSSL; listed as Homo sapiens) [compound 229] | “++++” (>75% = ++++)
40 | 230 (KPMKSVLVV; listed as Homo sapiens) [compound 230] | “+++” (>50 = +++)

The next lines start with the values.

Row | Peptide exchange (MHC class I binding score, peptide exchange yield) | Substance
41 | “++” (>20% = ++) | 231 (MPLSTIREV; listed as Homo sapiens) [compound 231]
42 | “+++” (>50 = +++) | 232 (APRPAGSYL; listed as Homo sapiens) [compound 232]
43 | “+++” (>50 = +++) | 233 (SPRVYWLGL; listed as Homo sapiens) [compound 233]
44 | “++” (>20% = ++) | 234 (SPKESENAL; listed as Homo sapiens) [compound 234]
45 | “++” (>20% = ++) | 235 (SPSLPSRTL; listed as Homo sapiens) [compound 235]
46 | “+++” (>50 = +++) | 236 (RPSNKAPLL; listed as Homo sapiens) [compound 236]
47 | “++” (>20% = ++) | 237 (SPWLHAPSL; listed as Homo sapiens) [compound 237]
48 | “+++” (>50 = +++) | 238 (SPRSWIQVQI; listed as Homo sapiens) [compound 238]
49 | “++” (>20% = ++) | 239 (APSKTSLIM; listed as Homo sapiens) [compound 239]
50 | “+++” (>50 = +++) | 240 (SPSLPNITL; listed as Homo sapiens) [compound 240]
51 | “+++” (>50 = +++) | 241 (APAPAEKTPV; listed as Homo sapiens) [compound 241]
52 | “++” (>20% = ++) | 242 (SPFSFHHVL; listed as Homo sapiens) [compound 242]
53 | “++” (>20% = ++) | 243 (LPKVQSIQL; listed as Homo sapiens) [compound 243]
54 | “+++” (>50 = +++) | 244 (MPSSDTTVTF; listed as Homo sapiens) [compound 244]
55 | “++” (>20% = ++) | 245 (SPLSHHSQL; listed as Homo sapiens) [compound 245]
56 | “++” (>20% = ++) | 246 (YPGWHSTTI; listed as Homo sapiens) [compound 246]
57 | “++” (>20% = ++) | 247 (QPSPARAPAEL; listed as Homo sapiens) [compound 247]
58 | “++” (>20% = ++) | 248 (LPYDSKHQI; listed as Homo sapiens) [compound 248]
59 | “++” (>20% = ++) | 249 (SPADHRGYASL; listed as Homo sapiens) [compound 249]
60 | “++” (>20% = ++) | 250 (VPNLQTVSV; listed as Homo sapiens) [compound 250]
61 | “+++” (>50 = +++) | 251 (QPRLFTMDL; listed as Homo sapiens) [compound 251]
62 | “++” (>20% = ++) | 252 (RPHIPISKL; listed as Homo sapiens) [compound 252]
63 | “+++” (>50 = +++) | 253 (RPFADLLGTAF; listed as Homo sapiens) [compound 253]
64 | “+++” (>50 = +++) | 254 (SPRNLQPQRAAL; listed as Homo sapiens) [compound 254]
65 | “++” (>20% = ++) | 255 (YPGSDRIML; listed as Homo sapiens) [compound 255]
